Measured values reported in paper PMC7934871 (JCI Insight, 2021).

Assays:
[1] = Systemic toxicity in mice; type: in vivo; details: 1 mg/kg i.v. every other day for 3 weeks, n = 3
Description: To evaluate the potential toxicity associated with systemic treatments of PS-peptide, PS-acet.-STAT3 peptide, PS-oligo, naive peptide, and PO- or PS-acet.-STAT3 peptide were given to the mice at 1 mg/kg through i.v. every other day for 3 weeks.
Supplemental Figure 10 (related to Figure 3). The systemic toxicity of PS-acet.-peptide.
The bodyweight (A), blood count (B) and organ morphology (H&E staining; spleen, kidney and liver) (C) of the mice (n=3) treated with HBSS (1), PS-oligo (2), naïve peptide (3), PO-peptide (4) or PS-peptide (5) every other day at 1 mg/kg (per treatment) for 3 weeks.
Individual value of each mouse is shown as a dot on the graph. The red lines on each graph in (B) indicate the normal ranges. Blood count was done by a veterinary hematology analyzer. The images shown in (C) are the represented H&E section from three mice (n=3). Enlarged view are shown below as indicated. Scale bar, 50 µm.
Aftabizadeh and Li et al., Figure S10

HCT116 xenograft tumors = experiment: HCT116 xenograft, monomer versus dimerized peptide, peritumoral; type: in vivo, mouse; details: HCT116 s.c. in NSG mice, peritumoral injection, monomer or dimerized, n = 5
Text: Figure 5 Dimerized PS-acet.-STAT3 peptide has improved antitumor functions. (A) The enhanced antitumor effect of the dimerized PS-acet.-STAT3 peptide is shown in HCT116 tumors grown in NSG mice (n = 5). Two-way ANOVA (Tukey’s multiple comparisons test) was used for analyzing the kinetics of tumor growth over the treatment period; ****P < 0.001; *P < 0.05. (B) The dimerized PS-acet.-STAT3 peptide downregulates pY705-STAT3 more effectively, as analyzed by immunoprecipitation and Western blotting with tumor homogenates from the tumors in A. hc, heavy chain of antibody. […] (D) quantitative real-time RT-PCR showing mRNA levels of STAT3-regulated proapoptotic and prosurvival genes in HCT116 tumor tissues treated with the indicated STAT3 peptides in A. n = 3 independent quantitative real-time RT-PCR experiments. […] Right panels show the quantified Ki-67 protein levels as well as mean of vessel diameter (data include 5 fields of view per group). […]
Mouse care and experimental procedures were performed under pathogen-free conditions in accordance with established institutional guidance and approved IACUC protocols from Research Animal Care Committee of the City of Hope. […] Tumor growth was measured by a digital caliper every other day. […] Lungs were then analyzed for immune responses by immunostaining followed by confocal imaging. […] Tumor growth was measured by a digital caliper every other day. […]

PDIPKEEAFGK685(Ac)YCRPESQEHPC-linker-T*C*C*A*T*G*A*G*C*T*T*C*C*T*G*A*T*G*C*T [PS-acet.-STAT3 peptide]
behavior, body weight, blood counts [1]: No behavior changes, body weight loss, or abnormal blood counts
morphology and cell death in liver, spleen, kidney tissues (H&E) [1]: no significant morphology change or cell death
tumor growth (HCT116 xenograft tumors): significantly reduced
